Laboratory results reported in US20170182119A1 (Dana-Farber, published 2017).
Each block holds one binder with its values, some of them ahead of it.

B1: ferritin purified from horse spleen (mixture of FTH1 and FTL subunits) (other)
chain 1: TTAFPSQVRQNYHQDSEAAINRQINLELHASYVYLSMSFYFDRDDVALKNFAKYFLHQSHEEREHAEKLMKLQNQRGGRIFLQDIKKPDQDDWENGLKAMECALHLEKNVNESLLELHKLATDKNDPHLCDFLETHYLNEQVKAIKELGDHVTNLRRMGAPESGMAEYLFDKHTLGECDES
chain 2: SSQIRQNYSTEVEAAVNRLVNLYLRASYTYLSLGFYFDRDDVALEGVCHFFRELAEEKREGAERLLKMQNQRGGRALFQDLQKPSQDEWGTTLDAMKAAIVLEKSLNQALLDLHALGSAQADPHLCDFLESHFLDEEVKLIKKMGDHLTNIQRLVGSQAGLGEYLFERLTLKHD
notes: Bought from Sigma (A3641 in the MYC assays, F4503 in the GST pull-downs); detected with anti-FTH1 antibody; also called Apoferritin; apo-ferritin purified from equine spleen

Columns and labels:
[1] = target: T1, MYC-NCOA4 full-length (human, UniProt Q13772 1-614); test: anti-MYC immunoprecipitation of in vitro translated MYC-NCOA4 with horse spleen ferritin, immunoblot
T1 construct: not shown: N-terminal MYC tag (vector pT7CFE1-NMyc)
T1 sequence: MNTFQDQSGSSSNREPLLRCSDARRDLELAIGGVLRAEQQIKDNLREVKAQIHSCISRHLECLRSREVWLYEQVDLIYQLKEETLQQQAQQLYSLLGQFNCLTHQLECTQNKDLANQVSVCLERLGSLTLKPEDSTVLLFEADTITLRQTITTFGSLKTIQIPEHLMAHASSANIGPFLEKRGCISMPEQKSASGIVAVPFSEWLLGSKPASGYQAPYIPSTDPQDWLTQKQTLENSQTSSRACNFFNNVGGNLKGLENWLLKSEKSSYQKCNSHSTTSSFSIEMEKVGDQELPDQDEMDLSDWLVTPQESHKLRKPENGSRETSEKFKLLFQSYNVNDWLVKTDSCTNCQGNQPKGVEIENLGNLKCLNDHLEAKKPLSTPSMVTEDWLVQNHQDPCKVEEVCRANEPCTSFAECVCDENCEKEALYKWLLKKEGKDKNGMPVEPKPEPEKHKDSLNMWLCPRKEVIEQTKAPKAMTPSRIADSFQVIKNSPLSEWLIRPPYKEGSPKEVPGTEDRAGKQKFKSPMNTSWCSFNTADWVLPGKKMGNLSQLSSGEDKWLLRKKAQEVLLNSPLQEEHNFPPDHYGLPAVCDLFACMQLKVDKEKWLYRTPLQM

[2] = target: T2, C-terminal MYC-NCOA4 (aa 235-614) (human, UniProt Q13772 235-614); test: as above
T2 construct: In vitro translated; also called C-terminal NCOA4; NCOA4 C-terminal fragment; not shown: N-terminal MYC tag (vector pT7CFE1-NMyc)
T2 sequence: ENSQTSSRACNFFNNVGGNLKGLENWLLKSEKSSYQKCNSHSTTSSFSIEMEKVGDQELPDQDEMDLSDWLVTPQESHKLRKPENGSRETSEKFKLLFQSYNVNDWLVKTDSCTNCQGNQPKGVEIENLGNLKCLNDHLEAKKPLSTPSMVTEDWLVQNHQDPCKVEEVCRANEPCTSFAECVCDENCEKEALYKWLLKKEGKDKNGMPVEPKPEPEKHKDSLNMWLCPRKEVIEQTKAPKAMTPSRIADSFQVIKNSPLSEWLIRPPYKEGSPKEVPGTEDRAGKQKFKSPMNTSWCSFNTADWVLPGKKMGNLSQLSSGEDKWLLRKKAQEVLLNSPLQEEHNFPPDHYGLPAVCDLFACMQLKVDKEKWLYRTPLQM

[3] = target: B1; test: anti-MYC immunoprecipitation of in vitro translated MYC-NCOA4 with horse spleen ferritin, FTH1 immunoblot
Method: (§1) An anti-MYC antibody immunoprecipitation was performed followed by immunoblotting with the indicated antibodies.
(§2) To probe the interaction between ferritin and NCOA4, initial binding assays using MYC-tagged NCOA4 full-length and truncation constructs produced using an in vitro translation (“IVT”) system were conducted. […] Apoferritin (Sigma, A3641-100 mg) was added in a pull-down assay using anti-c-Myc Agarose Affinity Gel antibody produced in rabbit (Sigma, A7470-1 ML). Affinity purification reactions were washed thoroughly with 150 mM NaCl, 20 mM Tris (pH 7.4), and 2 mM dithiothreitol.

[4] = target: B1; test: anti-MYC immunoprecipitation of in vitro translated MYC-NCOA4B with horse spleen ferritin, FTH1 immunoblot
Method: as §1, §2

Binder: B1
binding result [1]: binds
binding result [2]: binds

binding result [3]: no binding
B2: N-terminal MYC-NCOA4 (aa 1-245) (other)
chain: MNTFQDQSGSSSNREPLLRCSDARRDLELAIGGVLRAEQQIKDNLREVKAQIHSCISRHLECLRSREVWLYEQVDLIYQLKEETLQQQAQQLYSLLGQFNCLTHQLECTQNKDLANQVSVCLERLGSLTLKPEDSTVLLFEADTITLRQTITTFGSLKTIQIPEHLMAHASSANIGPFLEKRGCISMPEQKSASGIVAVPFSEWLLGSKPASGYQAPYIPSTDPQDWLTQKQTLENSQTSSRACN
notes: In vitro translated; also called N-terminal NCOA4; NCOA4 N-terminal fragment; not shown: N-terminal MYC tag (vector pT7CFE1-NMyc)

binding result [4]: no binding
B3: MYC-tagged NCOA4B (transcript variant, amino acids 1-238 and 555-614 of full-length NCOA4) (other)
chain: MNTFQDQSGSSSNREPLLRCSDARRDLELAIGGVLRAEQQIKDNLREVKAQIHSCISRHLECLRSREVWLYEQVDLIYQLKEETLQQQAQQLYSLLGQFNCLTHQLECTQNKDLANQVSVCLERLGSLTLKPEDSTVLLFEADTITLRQTITTFGSLKTIQIPEHLMAHASSANIGPFLEKRGCISMPEQKSASGIVAVPFSEWLLGSKPASGYQAPYIPSTDPQDWLTQKQTLENSQGEDKWLLRKKAQEVLLNSPLQEEHNFPPDHYGLPAVCDLFACMQLKVDKEKWLYRTPLQM
notes: in vitro translated; also called NCOAB; not shown: N-terminal MYC tag (vector pT7CFE1-NMyc)
